B1: A10I (designed binder)
chain: SMEEEVEKAIKEYEKKKKEAIEKHLEKLKAKDKEAAERFLKELEEAAKEYAKDEAKTMSEEEAKRRAKKYKEKVLLSELSEEEQKEIKEAEEKLVRTILKYVEEAAK
B2: L25D (designed binder)
chain: B1 chain with I10A, L25D
B3: K52V (designed binder)
chain: B1 chain with I10A, K52V
B4: Y101L (designed binder)
chain: B1 chain with I10A, Y101L
B5: F39C (designed binder)
chain: B1 chain with I10A, F39C
B6: A51M (designed binder)
chain: B1 chain with I10A, A51M
B7: E83A (designed binder)
chain: B1 chain with I10A, E83A
B8: V74H (designed binder)
chain: B1 chain with I10A, V74H
B9: M58K (designed binder)
chain: B1 chain with I10A, M58K
B10: A20P (designed binder)
chain: B1 chain with I10A, A20P
B11: A36K (designed binder)
chain: B1 chain with I10A, A36K
B12: L79V (designed binder)
chain: B1 chain with I10A, L79V
B13: E104R (designed binder)
chain: B1 chain with I10A, E104R
B14: V6Q (designed binder)
chain: B1 chain with V6Q, I10A
B15: R65A (designed binder)
chain: B1 chain with I10A, R65A
B16: E42C (designed binder)
chain: B1 chain with I10A, E42C
B17: E103I (designed binder)
chain: B1 chain with I10A, E103I
B18: K33L (designed binder)
chain: B1 chain with I10A, K33L
B19: A30Y (designed binder)
chain: B1 chain with I10A, A30Y
B20: S1W (designed binder)
chain: B1 chain with S1W, I10A
B21: E37S (designed binder)
chain: B1 chain with I10A, E37S
B22: V6G (designed binder)
chain: B1 chain with V6G, I10A
B23: L25H (designed binder)
chain: B1 chain with I10A, L25H
B24: L28C (designed binder)
chain: B1 chain with I10A, L28C
B25: K16C (designed binder)
chain: B1 chain with I10A, K16C
B26: L25W (designed binder)
chain: B1 chain with I10A, L25W
B27: K56A (designed binder)
chain: B1 chain with I10A, K56A
B28: V95W (designed binder)
chain: B1 chain with I10A, V95W
B29: V95C (designed binder)
chain: B1 chain with I10A, V95C
B30: Y13C (designed binder)
chain: B1 chain with I10A, Y13C
B31: K15E (designed binder)
chain: B1 chain with I10A, K15E
B32: E92L (designed binder)
chain: B1 chain with I10A, E92L
B33: L75K (designed binder)
chain: B1 chain with I10A, L75K
B34: V102L (designed binder)
chain: B1 chain with I10A, V102L
B35: E61T (designed binder)
chain: B1 chain with I10A, E61T
B36: S77I (designed binder)
chain: B1 chain with I10A, S77I
B37: A106I (designed binder)
chain: B1 chain with I10A, A106I
B38: E37C (designed binder)
chain: B1 chain with I10A, E37C
B39: K64L (designed binder)
chain: B1 chain with I10A, K64L
B40: K85F (designed binder)
chain: B1 chain with I10A, K85F
B41: K29F (designed binder)
chain: B1 chain with I10A, K29F
B42: L94M (designed binder)
chain: B1 chain with I10A, L94M
B43: A35G (designed binder)
chain: B1 chain with I10A, A35G
B44: A63Q (designed binder)
chain: B1 chain with I10A, A63Q
B45: V74L (designed binder)
chain: B1 chain with I10A, V74L
B46: K16E (designed binder)
chain: B1 chain with I10A, K16E
B47: Y50V (designed binder)
chain: B1 chain with I10A, Y50V
B48: K48F (designed binder)
chain: B1 chain with I10A, K48F
B49: S77E (designed binder)
chain: B1 chain with I10A, S77E
B50: A9C (designed binder)
chain: B1 chain with A9C, I10A
B51: E42H (designed binder)
chain: B1 chain with I10A, E42H
B52: E83S (designed binder)
chain: B1 chain with I10A, E83S
B53: L99F (designed binder)
chain: B1 chain with I10A, L99F
B54: E7A (designed binder)
chain: B1 chain with E7A, I10A
B55: K16G (designed binder)
chain: B1 chain with I10A, K16G

Substitutions are numbered along the chain they refer to. Numbers in names are those of the source.

The experiment addresses T1, TNFR1 (Homo sapiens, UniProt P19438).
T1 chain: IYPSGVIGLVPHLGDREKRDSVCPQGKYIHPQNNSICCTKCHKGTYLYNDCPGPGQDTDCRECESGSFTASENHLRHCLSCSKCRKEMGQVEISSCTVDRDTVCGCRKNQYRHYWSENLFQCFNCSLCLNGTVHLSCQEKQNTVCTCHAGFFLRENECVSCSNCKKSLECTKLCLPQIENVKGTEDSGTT
The experiment can be described thus: yeast display SC50.
As for B1, the “apparent Kd (screen)” value is 0.446 nM.

In the case of B2, the “apparent Kd (screen)” value was found to be 2.73 nM.

As for B3, the “apparent Kd (screen)” value stood at 0.956 nM.

Regarding B4, the “apparent Kd (screen)” value was determined as 0.405 nM.

In the case of B5, the “apparent Kd (screen)” value was 5.31 nM.

As for B6, the “apparent Kd (screen)” value is 0.49 nM.

For B7, the “apparent Kd (screen)” value is 0.405 nM.

With B8, the “apparent Kd (screen)” value was 6.43 nM.

As for B9, the “apparent Kd (screen)” value turned out to be 16.7 nM.

For the molecule B10, the “apparent Kd (screen)” value came to 3.63 nM.

Regarding B11, the “apparent Kd (screen)” value was found to be 0.49 nM.

Take B12: the “apparent Kd (screen)” value was determined as 1.27 nM.

In the case of B13, the “apparent Kd (screen)” value was found to be 0.446 nM.

With B14, the “apparent Kd (screen)” value came out at 6.43 nM.

For B15, the “apparent Kd (screen)” value came to 1.27 nM.

Consider B16, for which the “apparent Kd (screen)” value was 22.2 nM.

Take B17: the “apparent Kd (screen)” value is 0.539 nM.

Regarding B18, the “apparent Kd (screen)” value turned out to be 0.653 nM.

B19: the “apparent Kd (screen)” value was determined as 0.446 nM.

As for B20, the “apparent Kd (screen)” value came to 3.63 nM.

On to B21, for which the “apparent Kd (screen)” value is 0.49 nM.

Regarding B22, the “apparent Kd (screen)” value turned out to be 2.48 nM.

For B23, the “apparent Kd (screen)” value was found to be 0.49 nM.

Take B24: the “apparent Kd (screen)” value was 0.49 nM.

As for B25, the “apparent Kd (screen)” value worked out at 1.05 nM.

For the molecule B26, the “apparent Kd (screen)” value turned out to be 0.446 nM.

For B27, the “apparent Kd (screen)” value turned out to be 3 nM.

As for B28, the “apparent Kd (screen)” value came out at 13.8 nM.

For B29, the “apparent Kd (screen)” value is 11.4 nM.

With B30, the “apparent Kd (screen)” value worked out at 1.27 nM.

For the molecule B31, the “apparent Kd (screen)” value was determined as 0.869 nM.

B32: the “apparent Kd (screen)” value came to 10.4 nM.

In the case of B33, the “apparent Kd (screen)” value is 1.69 nM.

Regarding B34, the “apparent Kd (screen)” value amounted to 3 nM.

Take B35: the “apparent Kd (screen)” value is 0.956 nM.

Regarding B36, the “apparent Kd (screen)” value came to 11.4 nM.

For the molecule B37, the “apparent Kd (screen)” value is 5.84 nM.

Regarding B38, the “apparent Kd (screen)” value turned out to be 0.49 nM.

For the molecule B39, the “apparent Kd (screen)” value turned out to be 0.446 nM.

In the case of B40, the “apparent Kd (screen)” value came out at 0.539 nM.

B41: the “apparent Kd (screen)” value turned out to be 1.05 nM.

As to B42, the “apparent Kd (screen)” value is 1.86 nM.

B43: the “apparent Kd (screen)” value is 1.16 nM.

In the case of B44, the “apparent Kd (screen)” value is 1.4 nM.

With B45, the “apparent Kd (screen)” value was 0.49 nM.

Regarding B46, the “apparent Kd (screen)” value came to 1.54 nM.

With B47, the “apparent Kd (screen)” value came to 0.0802 nM.

As for B48, the “apparent Kd (screen)” value was found to be 0.593 nM.

For the molecule B49, the “apparent Kd (screen)” value was determined as 0.869 nM.

Turning to B50, the “apparent Kd (screen)” value was 0.446 nM.

B51: the “apparent Kd (screen)” value was 5.84 nM.

As to B52, the “apparent Kd (screen)” value amounted to 0.869 nM.

B53: the “apparent Kd (screen)” value worked out at 9.41 nM.

With B54, the “apparent Kd (screen)” value was determined as 3.63 nM.

With B55, the “apparent Kd (screen)” value was found to be 0.49 nM.

These data come from paper PMC12416549 (2024).
